From patent US20250236663A1 (NEURACLE SCIENCE, published 2025)

Experiments:
[1] = target: T1, FAM19A5 fragment 5 mutant peptide F5-8 (#8) (human); experiment: ELISA on the coated F5 mutant peptide
T1 construct: The entry already carries the alanine substitution and Ser for Cys; also called mutant peptide #8
T1 peptide: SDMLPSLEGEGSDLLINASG
Method: (§1) Overlapping peptide fragments (F1-F6, see FIG. 9) of the human FAM19A5 protein were synthesized and conjugated to BSA. Binding of the different anti-FAM19A5 antibodies to the BSA-conjugated peptide fragments F1-F6 was determined by Western blot analysis or ELISA assay. For the Western blot analysis, BSA-conjugated FAM19A5 fragments F1-F6 were separated by SDS polyacrylamide gel electrophoresis and transferred to a nitrocellulose membrane by the standard procedure. The membrane was incubated with the anti-FAM19A5 antibody (e.g., 1-65, 2 μg/ml, 1-65-scFv-rabbit Fc-SSS), and the antigen-antibody complexes were detected with the appropriate secondary antibody conjugated with horse-radish peroxidase (anti-rabbit IgG (Fc specific)-HRP, 1:4000 dilution). For the ELISA assay, the following protocol was used. FAM19A5 fragment F1-F6 (diluted to 1 μg/mL in 50 mM carbonate buffer (Biosesang) or to 20 μg/mL for high concentration analysis) were used to coat the wells of 96-well immuno plates (Thermo Scientific) (100 μL/well) overnight at 4° C. and then subsequently washed twice in 1×PBS. The plates were then blocked with the blocking buffer (100 μL/well) for 1 hour at room temperature. During the 1-hour incubation, the relevant anti-FAM19A5 antibodies were diluted to 1 μg/mL (or 20 μg/mL for high concentration analysis) in the diluent buffer. Once the plates were washed (2× using 1×PBS), the diluted anti-FAM19A5 antibodies were added to the appropriate wells, and the plates were incubated at room temperature for 1 hour. The plates were subsequently washed for a total of five times using the washing buffer. Next, the ODP substrate (prepared by dissolving one ODP tablet (O-phenylenediamine Dihydrochloride, Thermo) into 9 mL of sterilized deionized water and 1 mL of 10× stable Peroxide Stable buffer (Theromo)) was added to each of the wells, and the color change reaction was allowed to occur for 10 minutes. This reaction was stopped by adding 100 μL of 2N H2SO4 (Daejung) to the wells. The absorption value of each of the wells was detected at 492 nm using a 96-well microplate reader (Molecular Device).
(§2) Next, to identify the specific amino acid residues within the epitope fragment F5 that the 1-65 and P2-C12 antibodies bind to, different amino acid residues of the F5 fragment were replaced with alanine as shown in Table 9 (below).

[2] = target: T2, FAM19A5 fragment 5 mutant peptide F5-1 (#1) (human); experiment: ELISA on the coated F5 mutant peptide
T2 construct: The entry already carries the alanine substitution and Ser for Cys; also called mutant peptide #1
T2 peptide: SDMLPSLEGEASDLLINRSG
Method: as §1, §2

[3] = target: T3, FAM19A5 fragment 5 mutant peptide F5-5 (#5) (human); experiment: ELISA on the coated F5 mutant peptide
T3 construct: The entry already carries the alanine substitution and Ser for Cys; also called mutant peptide #5
T3 peptide: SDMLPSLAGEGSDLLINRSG
Method: as §1, §2

[4] = target: T4, FAM19A5 fragment 5 mutant peptide F5-6 (#6) (human); experiment: ELISA on the coated F5 mutant peptide
T4 construct: The entry already carries the alanine substitution and Ser for Cys; also called mutant peptide #6
T4 sequence (peptide, as listed by the source mutant): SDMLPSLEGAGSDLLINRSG
Method: as §1, §2

[5] = target: T5, FAM19A5 fragment 5 mutant peptide F5-3 (#3) (human); experiment: ELISA on the coated F5 mutant peptide
T5 construct: The entry already carries the alanine substitution and Ser for Cys; also called mutant peptide #3
T5 sequence (peptide, as listed by the source mutant): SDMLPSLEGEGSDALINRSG
Method: as §1, §2

FAM19A5-M5 = target: T6, FAM19A5-M5; experiment: ELISA on phage-displayed FAM19A5 mutants; y axis without label; IgG only bars 0.02 to 0.2
T6 construct: also called FAM19A5 mutant M5
T6 FAM19A5 mutant: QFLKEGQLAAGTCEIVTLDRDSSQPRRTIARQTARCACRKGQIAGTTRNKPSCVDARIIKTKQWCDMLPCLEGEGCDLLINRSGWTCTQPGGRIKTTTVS

FAM19A5-M1 = target: T7, FAM19A5-M1; experiment: as above
T7 construct: also called FAM19A5 mutant M1
T7 FAM19A5 mutant: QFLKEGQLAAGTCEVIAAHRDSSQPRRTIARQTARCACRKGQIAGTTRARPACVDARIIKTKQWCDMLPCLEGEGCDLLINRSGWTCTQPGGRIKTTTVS

FAM19A5-M3 = target: T8, FAM19A5-M3; experiment: as above
T8 construct: also called FAM19A5 mutant M3
T8 FAM19A5 mutant: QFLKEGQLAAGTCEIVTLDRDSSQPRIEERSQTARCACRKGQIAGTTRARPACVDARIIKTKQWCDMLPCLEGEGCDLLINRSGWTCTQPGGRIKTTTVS

FAM19A5-M4 = target: T9, FAM19A5-M4; experiment: as above
T9 construct: also called FAM19A5 mutant M4
T9 FAM19A5 mutant: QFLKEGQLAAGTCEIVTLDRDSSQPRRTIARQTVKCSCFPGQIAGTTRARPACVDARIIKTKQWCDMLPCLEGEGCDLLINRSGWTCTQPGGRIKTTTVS

FAM19A5-M2 = target: T10, FAM19A5-M2; experiment: as above
T10 construct: also called FAM19A5 mutant M2
T10 FAM19A5 mutant: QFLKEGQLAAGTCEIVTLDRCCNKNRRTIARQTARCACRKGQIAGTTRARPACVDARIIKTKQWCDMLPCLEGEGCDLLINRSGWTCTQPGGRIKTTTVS

O.D (492nm) [1]: 0.181
binding result [1]: no binding
O.D (492nm) [2]: 1.5
O.D (492nm) [3]: 1.57
O.D (492nm) [4]: 1.41
O.D (492nm) [5]: 0.15
binding result [5]: no binding
binding result (FAM19A5-M5): binds
binding result (FAM19A5-M1): binds
binding result (FAM19A5-M3): binds
binding result (FAM19A5-M4): binds
binding result (FAM19A5-M2): binds
B1: chimeric anti-FAM19A5-IgG2/4 monoclonal antibody (1-65) (antibody, V domains shown)
VH: AVTLDESGGGLQTPGGALSLVCKASGFTFSSYQMGWVRQAPGKGLEWVGVINKSGSDTSYGSAVKGRATISRDNGQSTVRLQLNNLRAEDTGTYFCAKGSASYITAATIDAWGHGTEVIVSS
VL: ALTQPSSVSANPGETVKITCSGGGSSGYGYGWYQQKSPSSAPLTVIYWNDKRPSDIPSRFSGSKSGSTHTLTITGVQAEDEAVYFCGNDDYSSDSGYVGVFGAGTTLTVL
notes: Chicken-derived variable domains; also called anti-FAM19A5 antibody 1-65; Anti-FAM19A5 (1-65)
